Consider 1 sequence from paper PMC7064759.

Common to all, as to test: BLI
What all share (conditions): BLI: 20 mM Tris-HCl pH 7.4, 80 mM NaCl, temperature not stated; pull-down: 20 mM Tris-HCl pH 7.5, 300 mM KCl, 0.2 mM EDTA, 0.5 mM DTT, 5 ug/ml poly(I.C) …

The test system of series [1] is T1, RBM45 RRM2-HOA (domain 2-HOA), Q8IUH3-3.
T1 sequence: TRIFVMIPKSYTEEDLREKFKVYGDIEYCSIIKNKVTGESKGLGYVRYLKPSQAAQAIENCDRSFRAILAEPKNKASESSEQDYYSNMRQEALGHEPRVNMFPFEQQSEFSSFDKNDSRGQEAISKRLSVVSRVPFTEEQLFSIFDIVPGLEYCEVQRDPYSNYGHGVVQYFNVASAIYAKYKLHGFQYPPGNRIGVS

Series [2] relates to T2, RBM45 domain 2-3, Q8IUH3-3.
T2 sequence: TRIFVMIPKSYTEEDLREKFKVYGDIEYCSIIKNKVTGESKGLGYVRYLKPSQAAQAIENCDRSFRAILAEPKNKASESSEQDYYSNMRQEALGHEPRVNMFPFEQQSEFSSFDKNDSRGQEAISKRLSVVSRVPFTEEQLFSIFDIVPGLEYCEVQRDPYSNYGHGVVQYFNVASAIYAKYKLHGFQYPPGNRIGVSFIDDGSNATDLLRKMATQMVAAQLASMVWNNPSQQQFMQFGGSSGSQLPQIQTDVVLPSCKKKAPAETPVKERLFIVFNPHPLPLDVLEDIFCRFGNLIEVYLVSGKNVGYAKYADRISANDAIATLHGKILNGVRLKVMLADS

For series [3], the system named is T3, RBM45 aa 2-257 as printed, Q8IUH3-3.
T3 sequence: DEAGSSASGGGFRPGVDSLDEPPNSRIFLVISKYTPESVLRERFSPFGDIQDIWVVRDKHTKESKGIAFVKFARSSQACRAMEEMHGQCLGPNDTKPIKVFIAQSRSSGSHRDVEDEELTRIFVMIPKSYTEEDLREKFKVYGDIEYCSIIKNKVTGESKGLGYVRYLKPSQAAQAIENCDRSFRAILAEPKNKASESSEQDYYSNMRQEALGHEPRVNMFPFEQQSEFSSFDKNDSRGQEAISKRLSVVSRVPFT

One may read the Kd as the concentration at which binding is half-saturated. A low value points to higher affinity. In the case of GUAAAGCUACGGGACGGU [ISE3], the Kd in series [1] came to 21.3 nM; in series [2] it was 21.8 nM; in series [3] it was 43 nM.
